Data from US20230331860A1.

Tests used:
Test in all cases: FcγR binding, SPR (method per paragraph 74)
[1] = biological target: cyCD16 (cynomolgus monkey) (UniProt Q8SPW2)
[2] = biological target: cyCD32a (cynomolgus monkey)
[3] = biological target: cyCD32b (cynomolgus monkey)
[4] = biological target: cyCD64 (cynomolgus monkey)
hCD16a-F158 (human) = hCD16a-F158 (human) (UniProt P08637)
hCD16a-V158 (human) = hCD16a-V158 (human) (UniProt P08637)
hCD32a-H131 (human) = hCD32a-H131 (human) (UniProt P12318)
Sequence of hCD32a-H131 (human) (P12318 36-218 limits assumed): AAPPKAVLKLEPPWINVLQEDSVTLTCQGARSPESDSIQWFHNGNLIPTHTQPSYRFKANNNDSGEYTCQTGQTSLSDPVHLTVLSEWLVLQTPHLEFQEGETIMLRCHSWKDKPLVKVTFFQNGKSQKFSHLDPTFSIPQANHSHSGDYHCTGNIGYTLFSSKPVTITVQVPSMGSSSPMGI

hCD32a-R131 (human) = hCD32a-R131 (human) (UniProt P12318)
Sequence of hCD32a-R131 (human) (P12318 36-218 H167R limits assumed): as the sequence (P12318 36-218 limits assumed) above, with H132R counted along it

hCD32b (human) = hCD32b (human) (UniProt P31994)
Sequence of hCD32b (human) (P31994 43-217 limits assumed): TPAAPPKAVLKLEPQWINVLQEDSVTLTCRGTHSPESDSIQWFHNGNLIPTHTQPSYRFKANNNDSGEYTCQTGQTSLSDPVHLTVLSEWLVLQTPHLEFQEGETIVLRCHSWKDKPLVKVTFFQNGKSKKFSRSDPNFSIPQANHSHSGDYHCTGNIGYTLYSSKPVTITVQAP

hCD64 (human) = hCD64 (human) (UniProt P12314)
Sequence of hCD64 (human) (P12314 16-288 limits assumed): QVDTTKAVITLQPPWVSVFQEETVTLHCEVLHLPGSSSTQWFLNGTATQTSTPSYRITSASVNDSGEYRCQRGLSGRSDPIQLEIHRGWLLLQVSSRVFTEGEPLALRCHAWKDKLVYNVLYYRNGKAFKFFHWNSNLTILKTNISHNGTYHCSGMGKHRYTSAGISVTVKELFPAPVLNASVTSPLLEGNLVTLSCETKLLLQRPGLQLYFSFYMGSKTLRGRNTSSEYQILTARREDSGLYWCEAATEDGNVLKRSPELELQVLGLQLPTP

Sequence of BMS-986325 (antibody) (heavy): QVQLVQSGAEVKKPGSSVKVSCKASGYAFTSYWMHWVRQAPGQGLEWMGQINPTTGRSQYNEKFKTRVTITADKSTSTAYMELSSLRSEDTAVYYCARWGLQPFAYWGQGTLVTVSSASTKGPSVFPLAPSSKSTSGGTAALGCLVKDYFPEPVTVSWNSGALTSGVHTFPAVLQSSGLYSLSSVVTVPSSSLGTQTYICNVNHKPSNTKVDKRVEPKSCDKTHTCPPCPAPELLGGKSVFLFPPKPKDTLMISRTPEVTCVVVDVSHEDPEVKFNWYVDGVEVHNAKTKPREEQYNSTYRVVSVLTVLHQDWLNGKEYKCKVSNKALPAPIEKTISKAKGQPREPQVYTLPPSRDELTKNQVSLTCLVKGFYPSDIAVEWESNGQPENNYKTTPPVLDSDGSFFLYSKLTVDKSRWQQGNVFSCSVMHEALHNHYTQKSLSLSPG
Sequence of BMS-986325 (antibody) (light): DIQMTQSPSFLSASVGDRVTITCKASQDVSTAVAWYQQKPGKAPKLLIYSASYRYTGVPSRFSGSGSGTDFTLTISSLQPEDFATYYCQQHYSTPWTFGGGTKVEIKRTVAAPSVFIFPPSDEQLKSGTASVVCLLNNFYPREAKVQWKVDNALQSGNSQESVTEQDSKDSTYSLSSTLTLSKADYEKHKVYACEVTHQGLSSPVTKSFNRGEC
Sequence of cyCD16 (cynomolgus monkey) (Q8SPW2 17-208 limits assumed): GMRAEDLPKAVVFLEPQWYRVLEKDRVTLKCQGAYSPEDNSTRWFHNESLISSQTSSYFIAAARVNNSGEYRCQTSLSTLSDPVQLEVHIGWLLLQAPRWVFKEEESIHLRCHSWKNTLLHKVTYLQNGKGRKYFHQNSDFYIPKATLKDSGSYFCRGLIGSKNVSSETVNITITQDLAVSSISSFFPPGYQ
Sequence of hCD16a-F158 (human) (P08637 17-208 limits assumed): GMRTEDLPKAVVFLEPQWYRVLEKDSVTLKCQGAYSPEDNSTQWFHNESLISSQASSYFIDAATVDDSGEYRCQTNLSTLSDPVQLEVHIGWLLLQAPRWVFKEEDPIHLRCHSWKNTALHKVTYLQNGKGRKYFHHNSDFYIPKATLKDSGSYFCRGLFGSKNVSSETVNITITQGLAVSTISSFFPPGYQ
Sequence of hCD16a-V158 (human) (P08637 17-208 F176V limits assumed): as the sequence (P08637 17-208 limits assumed) above, with F160V counted along it

Row | Kd [1] | Kd [2] | Kd [3] | Kd [4] | Kd (hCD16a-F158 (human)) | Kd (hCD16a-V158 (human)) | Kd (hCD32a-H131 (human)) | Kd (hCD32a-R131 (human)) | Kd (hCD32b (human)) | Kd (hCD64 (human)) | fold weaker binding than wild-type human IgG1 control [4] | Substance
1 | 164 nM | 1520 nM | 877 nM | < 0.1 nM | 4430 nM | 119 nM | 446 nM | 665 nM | 3090 nM | < 0.1 nM |  | wild-type human IgG1 control (antibody)
2 |  |  |  | 13 nM |  |  |  |  |  |  | 100 fold | BMS-986325 (antibody)
